Test results reported in US20190112342A1 (UNIVERSITY OF CHICAGO, published 2019).

B1: full-length strep-tagged Coa (CoaST) (other)
chain: IVTKDYSGKSQVNAGSKNGTLIDSRYLNSALYYLEDYIIYAIGLTNKYEYGDNIYKEAKDRLLEKVLREDQYLLERKKSQYEDYKQWYANYKKENPRTDLKMANFHKYNLEELSMKEYNELQDALKRALDDFHREVKDIKDKNSDLKTFNAAEEDKATKEVYDLVSEIDTLVVSYYGDKDYGEHAKELRAKLDLILGDTDNPHKITNERIKKEMIDDLNSIIDDFFMETKQNRPKSITKYNPTTHNYKTNSDNKPNFDKLVEETKKAVKEADDSWKKKTVKKYGETETKSPVVKEEKKVEEPQAPKVDNQQEVKTTAGKAEETTQPVAQPLVKIPQGTITGEIVKGPEYPTMENKTVQGEIVQGPDFLTMEQSGPSLSNNYTNPPLTNPILEGLEGSSSKLEIKPQGTESTLKGTQGESSDIEVKPQATETTEASQYGPRPQFNKTPKYVKYRDAGTGIREYNDGTFGYEARPRFNKPSETNAYNVTTHANGQVSYGARPTYKKPSETNAYNVTTHANGQVSYGARPTQNKPSKTNAYNVTTHGNGQVSYGARPTQNKPSKTNAYNVTTHANGQVSYGARPTYKKPSKTNAYNVTTHADGTATYGPRVTK
notes: Purified over Strep-Tactin-Sepharose; Used in the plasma pull-down and in the prothrombin and fibrinogen interference ELISAs; not shown: Strep tag
B2: R domain of Coa Newman with C-terminal Strep tag (RST) (other)
chain: EARPRFNKPSETNAYNVTTHANGQVSYGARPTYKKPSETNAYNVTTHANGQVSYGARPTQNKPSKTNAYNVTTHGNGQVSYGARPTQNKPSKTNAYNVTTHANGQVSYGARPTYKKPSKTNAYNVTTHADGTATYG
notes: Encoded by plasmid pET15b-rST; also called repeat (R) domain; not shown: C-terminal Strep tag

Molecular target: T1, human prothrombin (human, UniProt P00734 44-622)
T1 construct: also called PT
Assay: affinity chromatography of human citrate-plasma, immunoblot with anti-prothrombin

Row | Binder | binding result
1 | B1 | binds
2 | B2 | no binding
